Laboratory results as given in publication PMC2119095.

Molecular target: Ld class I MHC molecule of the mouse, properly folded form detected by mAb 30-5-7 (mouse)
Test: radioligand binding + co-IP

Chain of Ld class I MHC molecule of the mouse, properly folded form detected by mAb 30-5-7 (mouse) (P01897 25-362): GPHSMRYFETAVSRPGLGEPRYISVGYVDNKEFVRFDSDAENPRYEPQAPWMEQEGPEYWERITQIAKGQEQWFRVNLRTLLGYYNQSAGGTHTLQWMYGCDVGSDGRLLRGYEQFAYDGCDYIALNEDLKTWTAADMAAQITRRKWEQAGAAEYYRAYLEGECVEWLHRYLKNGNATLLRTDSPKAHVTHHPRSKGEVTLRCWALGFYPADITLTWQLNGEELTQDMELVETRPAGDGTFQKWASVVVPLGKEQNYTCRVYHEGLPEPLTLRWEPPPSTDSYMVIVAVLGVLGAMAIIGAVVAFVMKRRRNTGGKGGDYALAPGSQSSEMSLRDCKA

## murine CMV peptide (pp89, 168-176)
  percent of the FCS control (cells in serum-free medium during the 4 h assay): 85%
  percent of the surface plus lysate peptide binding accounted for by surface Ld: 80%
